# ± gives the standard deviation.
# Assay: protein stability index of a GFP-peptide fusion (GPS, HEK-293T) (PSI 1-6); higher = more stable
# Details: c terminus: a fixed tail appended
# 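Also: 24-mer peptide tiles fused after GFP, lentivirally expressed, FACS-sorted into six equal bins by GFP/DsRed ratio, decoded by Illumina sequencing, PSI is the read-weighted mean bin number.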
Sequence,protein stability index (treatment: DMSO),"protein stability index (treatment: MLN4924 1 uM, 8 h)"
ASSWKKQVSHDFLETRFKIQQLLE [FBXO34],2.89 ± 0.31,2.71 ± 0.41
EARGIRAPPLPDSPQPLASSPGPW [FCHO1],4.34 ± 0.28,4.31 ± 0.15
PTSGIVGALMEVMQKRSKAIHSSD [WASL],3.14 ± 0.14,3.39 ± 0.19
EEEERLRREEEERRRIEEERLRLE [ACBD3],5.61 ± 0.25,5.52 ± 0.12
NVPPIPVETLVKKKIPIISNAMLV [ACSBG2],2.4 ± 0.21,2.38 ± 0.27
GPAPPPLPPALVPAGGLAPGGGRG [WAS],5.09 ± 0.13,5.09 ± 0.18
FVESSGGGSSAVGQFVSLDGAGKT [BRF1],2.94 ± 0.52,3.44 ± 0.58
YDMSDTNSDPEVVNVDNLLAAAVV [C18orf25],4.06 ± 0.35,4.02 ± 0.26
DLCSDVNVCSLLAQTPLHVAAETG [RIPK4],3.46 ± 0.4,3.21 ± 0.47
VCQEVLERSRDVVDDVSVSLRLWD [RHOBTB2],3.31 ± 0.19,3.44 ± 0.37
KAVKYQSKARRKKIMIIICCVILG [STX1A],2.18 ± 0.8,2.25 ± 0.43
AGNKAALLDQIREGAQLKKVEQNS [WASL],,5.24 ± 0.4
MGTRDDEYDYLFKVVLIGDSGVGK [RAB11A],2.27 ± 0.41,2.44 ± 0.35
DVLLLGNDYIVPRHCPELAEMSRV [HNF4A],2.65 ± 0.2,2.49 ± 0.3
NMPETLPNNSCYSAGIAKLEEGDE [TNFSF13B],5.35 ± 0.23,5.5 ± 0.21
YVASHKIEKEEQEKKRKEEEERRR [ACBD3],3.2 ± 1.1,4.37 ± 0.73
TLDGYGIHPKSIDLDNYFTARRLL [NFE2L1],2.37 ± 0.41,2.28 ± 0.26
PGACPALGTKSCSSSCAVHDLIFW [RTN3],2.35 ± 0.33,2.29 ± 0.39
LSPAQKDLYRDVMLENYSNLVSVG [ZNF649],2.37 ± 0.74,3.02 ± 0.77
CEDLDELHYQDTDSDVPEQRDSKC [MYBL2],5.65 ± 0.37,5.54 ± 0.24
SARDCKFTGNFFYNYMMGIEFNPR [DHCR7],2.24 ± 0.44,2.07 ± 0.59
LRQFDLAWQYGPCTGITRLQRWCR [POLD4],2.26 ± 0.21,2.32 ± 0.27
ARMGFNASSMLRKSQLGFLNVTNY [DCAF4],2.26 ± 0.13,2.24 ± 0.14

Sequence,protein stability index (treatment: DMSO),"protein stability index (treatment: MLN4924 1 uM, 8 h)"
QTNSTKNSAAATSPKGTLPPAALE [CAMK2B],5.32 ± 0.16,5.22 ± 0.24
EDAEGEEEEEEEEEEEDDLSELPP [FKBP8],5.67 ± 0.19,5.56 ± 0.18
EMQQQMSLGELCHPVPLSFEPVKS [TRIM14],3.62 ± 0.22,4.05 ± 0.31
AGGQDMADSMLMQGSRGLTDQAIF [HDAC6],3.73 ± 0.054,3.86 ± 0.38
LPNTLLRKDKDVARLQDFQELELV [ANKRD40],3.76 ± 0.11,3.66 ± 0.29
RHSISMPAMRNSPTFKSFEERVET [TPD52L1],4.66 ± 0.18,4.75 ± 0.42
ELDDTLKYSFLQFDPAPRRGEPHV [PPP2CA],3.2 ± 0.32,3.41 ± 0.31
QYYEACRKAAKSLIKLGLERFHGV [ACSBG2],3.51 ± 1.3,3.45 ± 0.44
ISWAFTDRPDLSLTVLPKLQARER [C2CD2L],2.68 ± 0.28,2.71 ± 0.43
ISIPITGDTLRTFSLVLVLDLSKP [DYNC2LI1],2.69 ± 0.62,2.865 ± 0.02
AVRCASGRCTVRDFIHRHCQDQNV [SDE2],2.59 ± 0.41,2.39 ± 0.5
STPRCAQQAALPRLSRRMASQHSY [CBY2],2.3 ± 0.29,2.37 ± 0.079
ASTSLPTKPTQGASSASEPQGLFV [CLPTM1],4.42 ± 0.12,4.29 ± 0.48
KSENARLVVQIDNAKLAADDFRTK [KRT33B],4.4 ± 0.41,4.25 ± 0.27
MMVNLRACSAPGGLVPSEKPPMMP [C2CD2L],2.14 ± 0.26,2.29 ± 0.06
SFAQATQLGDLHTCLMMDMKACQE [INTS3],3.21 ± 0.19,3.3 ± 0.43
DLFGWSQLIYNHITTRVNSEQEHF [ADD1],2.72 ± 0.51,2.55 ± 0.41
KAMNMRYSDRTNIISKPVPQTLIM [FEM1C],2.09 ± 0.14,2.38 ± 0.5
DALRNLKCGSGARGGDGEVASAPL [TRADD],4.15 ± 0.38,4.05 ± 0.3
GIPKGVMLSHDNITWIAGAVTKDF [ACSBG2],2.67 ± 0.15,2.74 ± 0.15
DKLGELSDKIGSTIDDTISKFRRK [CLINT1],3.32 ± 0.58,3.4 ± 0.39
WAVQGQNVLHGYPKDIYSSFGFPR [MMP1],2.39 ± 0.18,2.15 ± 0.057
EKEKEKHKVKAEEEKKAKVAPPAK [BRD3],5.38 ± 0.34,5.56 ± 0.14

Sequence,protein stability index (treatment: DMSO),"protein stability index (treatment: MLN4924 1 uM, 8 h)"
STPAPAERPLPNPEGLDSDFLAVL [SLA],4.29 ± 0.35,4.26 ± 0.21
SRKNATQPPNAEEESGSSSASEEE [INTS3],5.53 ± 0.12,5.71 ± 0.14
GSSDASGSYSSTMNGHQNGLDSPP [ESRRG],4.93 ± 0.13,4.99 ± 0.27
NLLRDDRVLQNLLTIEERYLPQCS [CCND2],2.49 ± 0.26,2.58 ± 0.35
ASSPKGTIENILDNDPRDLIGDFS [CDC25A],4.91 ± 0.21,4.82 ± 0.14
ALARKQAQEQLRPQTPEPVEGRKH [RSPH3],5.33 ± 0.18,5.31 ± 0.28
KLIATSNKPAVKLLYNRSNNKYSY [KCTD10],2.23 ± 0.14,2.49 ± 0.23
HVKMMLSGVCLFAVFIALLPILGH [PTGFR],2.97 ± 0.83,2.79 ± 0.78
NEGAIDCVNYEGQSAYDVADMLKQ [DLC1],4.82 ± 0.28,4.82 ± 0.12
TKRSTLIISGVSKVPIAQDELALS [C2CD2L],3.16 ± 0.17,3.14 ± 0.19
RRRVPVRNLGKVVHYAKVQLRFQH [PLEKHN1],2.35 ± 0.39,2.29 ± 0.25
LTLCRSDLEAQMESLKEELLSLKQ [KRT33B],2.41 ± 0.28,2.8 ± 0.24
RGPPRGLRGGRGGSGGTRGPPSRG [RBMX],5.18 ± 0.2,4.92 ± 0.33
ELKVKDSQPIDLSACTVALHIFQL [TRIP13],2.58 ± 0.47,2.15 ± 0.6
ASMSKRRCGVGVSVLDDLLYAVGG [KLHL20],2.62 ± 0.14,2.13 ± 0.44
REEEEKTPPETKPDPPVNFLRQKV [PCMTD2],5.34 ± 0.26,5.29 ± 0.087
EDMEASDYELEDETRPAKRITITE [WEE1],5.42 ± 0.25,5.36 ± 0.17
GEDIPEKIKDEVHPEVKCVGSVAL [C8orf76],4.84 ± 0.39,4.81 ± 0.31
AATQVFFALGLGFGGVIAFSSYNK [SLC6A17],2.64 ± 0.43,2.83 ± 0.67
SPSPSSRVTVSRASSSRSVRTTRG [LMNB1],5.08 ± 0.27,5.12 ± 0.09
ADSSAQAAAQAPENFQEGKDMSES [TAF7L],5.72 ± 0.14,5.49 ± 0.39
QFLNDQISVQNYKQVCKIAALHGL [KLHL14],2.14 ± 0.28,2.17 ± 0.16
CSHSFLLAVMGYDRYIAICNPLRY [OR10K2],2.87 ± 0.52,2.88 ± 0.58

Sequence,protein stability index (treatment: DMSO),"protein stability index (treatment: MLN4924 1 uM, 8 h)"
PESAIKFMAYEQIKRLVGSDQETL [SLC25A25],3.31 ± 0.15,3.4 ± 0.25
AVMRGQILNLTQALKDNKSPLHLV [PI4K2A],2.33 ± 0.33,2.3 ± 0.24
KTLLAIGGWNFSTQKFTDMVATAN [CHIT1],2.39 ± 0.34,2.14 ± 0.21
TAAFTTAKAAALSTKTPAPCSEFM [SPAG8],3.67 ± 0.14,3.84 ± 0.24
GSMVEIAKQLQAVKRKIRDESLCP [TRIM39],3.09 ± 0.24,3.15 ± 0.24
LTFHGLILRSQLVTLLVRGVCYSE [CLCN6],2.98 ± 0.35,3.03 ± 0.26
APFTDEQLYMEQFTKANFWYQPSF [CARM1],2.31 ± 0.42,2.21 ± 0.26
KSESSLPHQTSKMENLPGLASGPG,4.87 ± 0.29,4.43 ± 0.33
DPTGPAGLGRPTPGLSQGPGKETL [EHMT1],5.17 ± 0.15,5.09 ± 0.13
AAGELPTVECYNPRTNEWTYVAKM [KLHL13],3.11 ± 0.37,3.2 ± 0.42
LAQRTQQDSTRTVGERLQDTHSWK [TEKT4],4.42 ± 0.6,4.64 ± 0.21
VILGVTNPFFAKTLQHWPHIIRIG [DENND6A],2.94 ± 0.67,2.78 ± 0.46
RISNPSDDNSCEDLEEERREEEEK [PCMTD2],5.59 ± 0.099,5.704 ± 0.05
TLRQKTVDWRRVSRLQEDPEGTEN [SLA],4.87 ± 0.27,4.79 ± 0.52
ELDELASKAPVLTYGQPKQAPPAD [EFHC1],5.44 ± 0.25,5.59 ± 0.15
EYGTCMCLVKGIFYHCSNDDEGDS [SPRY1],3.14 ± 0.21,3.27 ± 0.23
GGGSLSGGGGSRSISASSARFVSS [KRT15],4.23 ± 0.47,4.39 ± 0.23
TPTSPECDYSQYFKTIEELRDKIM [KRT15],3.4 ± 0.27,3.6 ± 0.43
YNVIIGWSIFYFFKSFQYPLPWSE [SLC6A17],,3.32 ± 0.67
FGSQQSPIDVVEKYDPKTQEWSFL [KLHL12],3.44 ± 0.34,3.65 ± 0.39
MKALILVGGYGTRLRPLTLSTPKP [GMPPB],2.18 ± 0.61,2.23 ± 0.23
